This sample holds only a part of the variants without activity.
B1: TPR 5TU (parent)
chain: GGAUCUUCUCGAUCUAACAAAAAAGACAAAUCUGCCACAAAGCUUGAGAGCAUCUUCGGAUGCAGAGGCGGCAGCCUUCGGUGGCGCGAUAGCGCCAACGUUCUCAACUAUGACACGCAAAACGCGUGCUCCGUUGAAUGGAGUUUAUCAUG

Variants of: B1
Test: polymerase ribozyme fitness, log enrichment relative to wild type (log ratio); higher = more active; in vitro selection for triplet polymerase activity
Procedure, shortened: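 After PCR construction and transcription, each subunit's mutant library from a heterodimeric triplet polymerase ribozyme was annealed with a biotinylated primer, the partner subunit and triplets. Incubation was frozen, at −7 °C, and extended constructs were gel-excised, bound to streptavidin beads and amplified by RT-PCR, in one selection round done in triplicate. Fitness is the logarithm of a genotype's enrichment divided by that of the wild type, from inverse-variance-weighted replicate averages of Illumina-sequenced inputs and outputs. The base of the logarithm is 2, and genotypes needed ≥10 input reads and ≥1 read per output.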

Variant	polymerase ribozyme fitness (log ratio)
GGAUCUUCUCGAUGUAACAAAGAAAACCAAUCUGCCACAAAGCUUGAGACCAUCUUCGGAUGCAGAGGCGGCAGCCUUCGGUGUCGCGAUAGCGCCAACGUUCGCAACUAUGACACGCAAAACGCGUGCUCCGUUGAAUGGAGUUUAUCAUG [C14G A22G G25A A28C G50C G84U U104G]	≤ -4.2
GGAUCUUCUCGAUAGAACAAAAAAGUCAAAUCUGCCACAAAGCUUGAGAGCAUCUUCGGAUGCAGAGGCGGCAGCCUUCGGUGGCUCGAUAUCGCCAACGUUCUCAUCAAUGACAAGCAAAACGCGUGCUCCGUUGAAUGGAGUUUAUCAUG [C14A U15G A26U G86U G92U A107U U109A C116A]	≤ -4.2
GGAUCUUCUCGAUAUAACAAAAAAGACAAAUCUGCCACAAAGCUUGAGAGCAUCAUCGGAUGCAGAGGCGGCAGUCUUCGGUGGCGCGAUAGCGCCAACGUUCUCAACUAUGACACGCAUAACGCGUGCUCCGUUGAAUGGAGUUUAUCAUG [C14A U55A C75U A120U]	-2.39
GGAUCUUCUCGAUGUAACAAAAAAGACUAAUCUGCCACAAAGCUUGAGAACAUCUUCGGAUGCAGAGGCGGCAGCCUUCGGUGGCGCGAUAGCGCCAACGUUCUCAACUAUGACACGCCAAACGCGUGCUCCGUUGAAUGGAGUUUUUCAUG [C14G A28U G50A A119C A147U]	≤ -4.2
GGAUCUUCUCGAUGUAACAAAAAAGACAGAUCCGCCUCAAAGCUUGAGAGCAUCUUCGGAUGCAGAGGCGGCAGCCUUCGGUGGCGCGAUAGCGCCAACGUUCUCAACUAGGACACGCAAAACUCGUGCUCCGAUGAAUGGAGUUUAUCAUG [C14G A29G U33C A37U U111G G124U U134A]	≤ -4.2
GGAUCUUCUCGAUGUAACAAAAAUGACAAUUCUGCCACAAAGCAUGAGAGCAUAUUCGGAUGCAGAGGCGGCAGCCUUCGGUGGCGUGAUAGCGCCAACGUUCUCAACUAUUACACGCAAAACGCGUGCUCCGUUGAAUGGAGUUUAUCAUG [C14G A24U A30U U44A C54A C87U G112U]	-4.11
GGAUCUUCUCGAUGUAACAAAAAGGACAAAACUGCCACAAAGCUUGAGCGCCUAUACGGAUGCAGAGGCGGCUGCCUUCGGUGGCGCGGUAGCGCCAAGGUUCUCACCUAUGACACGCAAAACGCGUGCUCCGUUGAAUGGAGUUUAUGAUG [C14G A24G U31A A49C A52C C54A U56A A73U A89G C99G A107C C149G]	≤ -4.2
GGAUCUUCUCGAUGUAACAAAAACGACAAAUCUGUCACAAAGCUUGAGAGCAUCUUAGGAUGCAGAGGCGGCAGCCUUCGGUGUCGCGAUAGCGCCUACGUUCUCAACUAUGACACGCAAAACGCGUGCUCCGUUGAAUGGAGUUUAUCAUG [C14G A24C C35U C57A G84U A97U]	≤ -4.2
GGAUCUUCUCGAUGUAACAUAAAAGACAAAUCUGCCACAAAGCUUGAGAGCAUCAUCGGAUGCAGAGGCGGCAGCCUUCGGUGGAGCGAUAGCGCCAACGUUCUUAACUAUGACACGCAAAACGCGUGCUCCGAUGAAUGGAGUUUAUCAUG [C14G A20U U55A C85A C105U U134A]	≤ -4.2
GGAUCUUCUCGAUGUAACACAAAAGACAAAUCUGCCACAAAGCUUGAGAUCAACUUCGGAUGCAGAGGCGGCAGCCUUCGGUGGCGCGAUAGCGCCAACGUUCUCAACUAUGACACGCAAAACGCUUGCUCCGUUGAAAGGAGUUUAUCAUG [C14G A20C G50U U53A G126U U139A]	≤ -4.2
GGAUCUUCUCGAUGUAACAAAAAAGACAAAUCUGCCACUAAGCUUGAGAGCAUCUUGGGAUGCAGAGGCGGCAGCCUUCGGUGGCGCGAUAGCGCCAACGUUCUCAACUAUGACACGCAAAACGCGUGCUCCGUUGAAUGGAGUUUAUCAUG [C14G A39U C57G]	-4.06
GGAUCUUCUCGAUGUAACAAAAAAGACAAAUCUGCCACCAAGCUUGAGAGCAUGUUCGGAUGCAGAGGCGUCAGCCUUGGGUGGCGCGAUAGCGCCAACGUUCUCAACUAUGACACGCAAAACGCGUGCUCCGUUGAAUGGAGUUUAUCAUG [C14G A39C C54G G71U C79G]	≤ -4.2
GGAUCUUCUCGAUGUAACAAAAAAGACAAAUCUGCCACAAAGCUUGAGAGCAUCUUCGGAUGCAGAGGCGGCAGCCUUCGGUGGCGCGAUAGCGCCAACGUUCUCAACUAUGACACGCAAAACGCGUGCUCCGUUGAAUGGAGUUUAUCAUG [C14G]	-2.09
GGAUCUUCUCGAUGUAACAAAAUAGACAAAUCUGCCACAAAGCUUGAGAGCAUGUUCGGAUGCAGAUGCGGCAGCCUUCGGUGGCGCGAUAGCGCCAACGUUCUCAACUAUGACACGCAAAACGCGUGCUCCGUUGAAUGGUGUUUAUCAAG [C14G A23U C54G G67U A142U U151A]	≤ -4.2
GGAUCUUCUCGAUGUAACACAAAAGACAAAUCUGCCACACAGCUUGAGAGCAUCUUCGGAUGCAGAGGCGGCAGCCUUCGGUGGCGCGCUAGCGCCAACGUUCUCAACUAUGACACGCAAAACGCGUGCUCCGUUGAAUGGAGUUUAUCAUG [C14G A20C A40C A89C]	-4.13
GGAUCUUCUCGAUGUAACAAAAAGGACAAAUCUGCCACAAUGCUUGAGAGCAUCUUCGGAUGCAGAAGCGGCAGCCUUCGGUGGCGCGAUAGCGCCAACGUUCUCAACUAUGACACGCAAAACGCGUGCUCCGUUGAAUGGAGUUUAUCAUA [C14G A24G A41U G67A G152A]	≤ -4.2
GGAUCUUCUCGAUAAAACAAAAAAGACAAAUCUGCCACAAAGCUUGAGAUCAUCUUCGGAUGCAGGGGCGGCAGCCUUCGGUGGCGCGAUAGCGCCAACGGUCUCAACUAUGAUACGGAAAACGCGUGCUCCAUUGGAUGGAGUUUAUCAUG [C14A U15A G50U A66G U101G C114U C118G G133A A137G]	≤ -4.2
GGAUCUUCUCGAUGUAACAUAAAAGACAAAUCUGCCACAAAGCUUGAGAGCAUCUUCGGAUGCAGAGGCGGCAGCCUUCGGUGGCGCGAUAGCGCCAACGUUCUCAACUAUGACACGCAAAACGCGUGCUCCGUUGAAUGGAGUUUAUCAUG [C14G A20U]	-2.37
GGAUCUUCUCGAUGUUACAAAAAAGACAAAUCUGCCACGAAGCUUGAGAGCAUCUUCGGAUGCAGAGGCGGCAGCCUUCGGUGGCGCGAUAGCGCCAACGUUCUCAACUAUGACACGCAAAACACGUGCUCCGUUGAAUGGAGUUUAUCAUG [C14G A16U A39G G124A]	≤ -4.2

— the RNAGym collection of RNA variant scans (doi:10.1073/pnas.2313332121)
